Laboratory results taken from publication PMC5998080, “Structural and functional analysis of mRNA export regulation by the nuclear pore complex” (Nature Communications, 2018).

T1: S. cerevisiae Gle1^CTD (Saccharomyces cerevisiae, UniProt Q12315)
T1 construct: C-terminal domain alone (borders in supplement); His6-scGle1CTD from E. coli, tag cleaved
T1 sequence (Q12315 243-538): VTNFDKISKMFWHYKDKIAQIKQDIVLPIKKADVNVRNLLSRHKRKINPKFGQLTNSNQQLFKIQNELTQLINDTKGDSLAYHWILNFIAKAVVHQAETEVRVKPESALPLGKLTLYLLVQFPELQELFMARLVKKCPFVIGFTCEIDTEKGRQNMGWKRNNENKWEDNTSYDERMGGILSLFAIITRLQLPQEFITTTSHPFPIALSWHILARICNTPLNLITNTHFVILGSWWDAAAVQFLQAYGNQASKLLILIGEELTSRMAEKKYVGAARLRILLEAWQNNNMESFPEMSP

T2: S. cerevisiae Gle1^CTD•Nup42^GBM (Saccharomyces cerevisiae, UniProt Q12315)
T2 construct: E. coli; His6 tag cleaved with PreScission; with Nucleoporin NUP42
T2 sequence (Q12315 243-538): T1 sequence (Q12315 243-538)
T2 sequence (P49686 397-430 partner): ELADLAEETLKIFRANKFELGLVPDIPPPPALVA

T3: S. cerevisiae Gle1^CTD•Nup42^GBM•Dbp5 (Saccharomyces cerevisiae, UniProt P20449+Q12315)
T3 construct: with Nucleoporin NUP42
T3 sequence (Q12315 243-538): T1 sequence (Q12315 243-538)
T3 sequence (P20449 1-482): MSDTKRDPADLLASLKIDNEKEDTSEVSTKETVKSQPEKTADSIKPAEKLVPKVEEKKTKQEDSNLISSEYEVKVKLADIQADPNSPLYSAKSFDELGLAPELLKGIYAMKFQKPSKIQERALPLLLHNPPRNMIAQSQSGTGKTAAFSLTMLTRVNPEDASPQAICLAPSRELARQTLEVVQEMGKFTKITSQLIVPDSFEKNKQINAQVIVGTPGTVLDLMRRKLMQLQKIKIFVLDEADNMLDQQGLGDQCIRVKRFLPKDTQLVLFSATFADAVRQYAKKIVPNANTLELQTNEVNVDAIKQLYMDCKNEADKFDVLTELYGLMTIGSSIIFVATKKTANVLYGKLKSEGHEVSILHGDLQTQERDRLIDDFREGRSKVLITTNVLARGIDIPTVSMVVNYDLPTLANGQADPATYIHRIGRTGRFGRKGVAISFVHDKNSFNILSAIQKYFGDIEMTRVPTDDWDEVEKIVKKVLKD
T3 sequence (P49686 397-430 partner): T2 sequence (P49686 397-430 partner)

T4: H. sapiens DDX19 (human, UniProt Q9UMR2 1-479)
T4 construct: human DEAD-box helicase DDX19 (the printed residue numbers run to 479); also called hsDDX19; wild-type DDX19; source: E. coli BL21-CodonPlus(DE3)-RIL, purified (Ni-NTA, HiTrap Q, Superdex 200); not shown: His6, N-terminal, cleaved
T4 sequence (looked up): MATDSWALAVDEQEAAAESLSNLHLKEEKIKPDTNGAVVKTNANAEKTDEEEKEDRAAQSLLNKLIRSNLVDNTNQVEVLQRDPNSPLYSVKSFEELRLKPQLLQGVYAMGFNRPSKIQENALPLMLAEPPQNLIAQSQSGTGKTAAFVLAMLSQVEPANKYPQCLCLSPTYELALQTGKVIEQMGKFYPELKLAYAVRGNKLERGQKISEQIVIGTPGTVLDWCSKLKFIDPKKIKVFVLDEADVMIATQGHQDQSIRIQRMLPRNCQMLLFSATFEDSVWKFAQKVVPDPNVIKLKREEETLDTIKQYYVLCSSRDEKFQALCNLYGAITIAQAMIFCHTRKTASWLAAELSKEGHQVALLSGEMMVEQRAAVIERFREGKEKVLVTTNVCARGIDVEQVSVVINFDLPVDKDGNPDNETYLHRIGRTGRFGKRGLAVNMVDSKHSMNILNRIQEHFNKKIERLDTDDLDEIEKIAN

T5: H. sapiens DDX19^∆N53 (residues 54–479) (human, UniProt Q9UMR2 54-479)
T5 construct: human DEAD-box helicase DDX19 without the flexible N-terminal extension, residues 54-479; source: E. coli BL21-CodonPlus(DE3)-RIL, purified (Ni-NTA, HiTrap Q, Superdex 200); not shown: His6, N-terminal, cleaved
T5 sequence (looked up): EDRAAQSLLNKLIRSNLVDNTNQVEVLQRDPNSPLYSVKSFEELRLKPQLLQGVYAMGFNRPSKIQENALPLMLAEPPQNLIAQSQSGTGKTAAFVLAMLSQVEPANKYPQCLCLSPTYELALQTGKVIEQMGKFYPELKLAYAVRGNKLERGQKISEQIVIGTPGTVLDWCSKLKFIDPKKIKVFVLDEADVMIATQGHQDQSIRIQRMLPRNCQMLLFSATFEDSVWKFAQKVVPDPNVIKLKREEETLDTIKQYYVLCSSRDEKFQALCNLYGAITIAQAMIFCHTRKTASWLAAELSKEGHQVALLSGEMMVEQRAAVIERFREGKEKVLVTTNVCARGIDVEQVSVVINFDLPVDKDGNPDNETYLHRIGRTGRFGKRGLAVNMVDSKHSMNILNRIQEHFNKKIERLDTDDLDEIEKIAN

T6: Nup155 C-terminal domain (Nup155^CTD, residues 870–1391) (human, UniProt O75694 870-1391)
T6 construct: human Nup155, C-terminal domain, residues 870-1391; also called His6-Nup155^CTD; source: E. coli BL21-CodonPlus(DE3)-RIL, purified (Ni-NTA, HiTrap Q, Superdex 200); not shown: His6, N-terminal, cleaved
T6 sequence (looked up): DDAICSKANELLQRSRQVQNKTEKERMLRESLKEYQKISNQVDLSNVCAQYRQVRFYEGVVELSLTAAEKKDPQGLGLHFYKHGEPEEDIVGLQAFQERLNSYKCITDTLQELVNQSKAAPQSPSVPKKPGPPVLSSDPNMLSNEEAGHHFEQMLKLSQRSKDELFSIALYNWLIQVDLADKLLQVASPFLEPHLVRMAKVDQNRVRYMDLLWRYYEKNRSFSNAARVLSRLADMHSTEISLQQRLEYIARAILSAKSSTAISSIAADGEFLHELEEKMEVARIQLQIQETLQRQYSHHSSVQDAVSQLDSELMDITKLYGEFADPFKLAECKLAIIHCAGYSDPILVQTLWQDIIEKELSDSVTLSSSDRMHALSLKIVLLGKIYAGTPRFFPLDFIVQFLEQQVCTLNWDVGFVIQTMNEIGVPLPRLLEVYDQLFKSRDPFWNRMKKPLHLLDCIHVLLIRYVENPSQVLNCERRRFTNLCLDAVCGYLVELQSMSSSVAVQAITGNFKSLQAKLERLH

T7: GST-Nup155^CTD (human, UniProt O75694 870-1391)
T7 construct: human Nup155, C-terminal domain, residues 870-1391; Limits are those printed for Nup155^CTD; source: E. coli BL21-CodonPlus(DE3)-RIL, purified (Glutathione Sepharose, HiTrap Q, Superdex 200); not shown: GST, N-terminal, kept
T7 sequence (looked up): T6 sequence (looked up)

T8: DDX19 (wild type) (Homo sapiens, UniProt Q9UMR2 1-479)
T8 sequence: T4 sequence (looked up)

B1: H. sapiens Gle1^CTD•Nup42^GBM complex (complex, human)
chain 1: VQDITMQWYQQLQDASMQCVLTFEGLTNSKDSQAKKIKMDLQKAATIPVSQISTIAGSKLKEIFDKIHSLLSGKPVQSGGRSVSVTLNPQGLDFVQYKLAEKFVKQGEEEVASHHEAAFPIAVVASGIWELHPRVGDLILAHLHKKCPYSVPFYPTFKEGMALEDYQRMLGYQVKDSKVEQQDNFLKRMSGMIRLYAAIIQLRWPYGNRQEIHPHGLNHGWRWLAQILNMEPLSDVTATLLFDFLEVCGNALMKQYQVQFWKMLILIKEDYFPRIEAITSSGQMGSFIRLKQFLEKCLQHKDIPVPKGFLTSSFWRS
chain 2: IIATDNVLFTPRDKLTVEELEQFQSKKFTLGKIPLKPPPLELLNV
notes: human Gle1 (splice variant Gle1B), C-terminal domain, residues 382-698; Chains as m16 and m17; also called hsGle1^CTD•His6-hsNup42^GBM; source: E. coli BL21-CodonPlus(DE3)-RIL, co-expressed, purified (Ni-NTA, heparin, Superdex 75); not shown: His6, N-terminal, cleaved
B2: H. sapiens Gle1 C-terminal domain (Gle1^CTD, residues 382–698) (domain or fragment, human, UniProt Q53GS7 382-698, looked up)
chain: B1 chain 1
notes: human Gle1 (splice variant Gle1B), C-terminal domain, residues 382-698; also called hsGle1^CTD; source: E. coli BL21-CodonPlus(DE3)-RIL, co-expressed with His6-hsNup42^GBM, purified (Ni-NTA, heparin, Superdex 75)
B3: SUMO-Gle1^N (SUMO fusion of human Gle1 residues 2–33) (domain or fragment, UniProt Q53GS7 2-33, looked up)
chain: PSEGRCWETLKALRSSDKGRLCYYRDWLLRRE
notes: human Gle1 (splice variant Gle1B), N-terminal residues 2-33; No cleavage of the His6-SUMO tag is described for this construct; also called His6-SUMO-hsGle1^N; source: E. coli BL21-CodonPlus(DE3)-RIL, purified (Ni-NTA, HiTrap Q, Superdex 200); not shown: SUMO, N-terminal, kept
B4: Nup98 lacking the FG repeat region (Nup98^∆FG, residues 498–880) (domain or fragment, human, UniProt P52948 498-880, looked up)
chain: QAVLQQHINSLTYSPFGDSPLFRNPMSDPKKKEERLKPTNPAAQKALTTPTHYKLTPRPATRVRPKALQTTGTAKSHLFDGLDDDEPSLANGAFMPKKSIKKLVLKNLNNSNLFSPVNRDSENLASPSEYPENGERFSFLSKPVDENHQQDGDEDSLVSHFYTNPIAKPIPQTPESAGNKHSNSNSVDDTIVALNMRAALRNGLEGSSEETSFHDESLQDDREEIENNSYHMHPAGIILTKVGYYTIPSMDDLAKITNEKGECIVSDFTIGRKGYGSIYFEGDVNLTNLNLDDIVHIRRKEVVVYLDDNQKPPVGEGLNRKAEVTLDGVWPTDKTSRCLIKSPDRLADINYEGRLEAVSRKQGAQFKEYRPETGSWVFKVSHF
notes: human Nup98, construct lacking the FG repeat region, residues 498-880; also called Nup98^ΔFG; His6-SUMO-Nup98^∆FG; source: E. coli BL21-CodonPlus(DE3)-RIL, purified (Ni-NTA, HiTrap Q, Superdex 200); not shown: His6, N-terminal, cleaved; SUMO, N-terminal, cleaved
B5: 53-nt ssRNA probe (ssRNA)
RNA: GUUUUUUUUUUUUUUUUUUUUCUCGAUCCGUAGUGAUCUACUGAGCAUCUCCC

Key:
[1] = molecular target: T9, C. thermophilum Gle1^CTD•Nup42^GBM (Thermochaetoides thermophila, UniProt G0S7F3); test: X-ray crystal structure ([…] Å); assay type: binding; conditions: pH 6.3 MES, zinc sulfate; pocket on Gle1
T9 construct: E. coli; tags cleaved; with Nucleoporin NUP42

S. cerevisiae Gle1^CTD = molecular target: T1, S. cerevisiae Gle1^CTD; test: differential scanning fluorimetry; assay type: binding; conditions: Tm without to with IP6 (25 µM); no Nup42; 20 mM Tris pH 8.0, 100 mM NaCl, 5 mM DTT
[2] = molecular target: T2, S. cerevisiae Gle1^CTD•Nup42^GBM; test: isothermal titration calorimetry; assay type: binding
[3] = molecular target: T3, S. cerevisiae Gle1^CTD•Nup42^GBM•Dbp5; test: size exclusion chromatography, complex formation; assay type: binding; conditions: 0.5 mM IP6, 20 mM Tris pH 8.0, 100 mM NaCl, 5 mM DTT; IP6 bridges Gle1 and Dbp5
H. sapiens DDX19 = molecular target: T4, H. sapiens DDX19; test: SEC; human DDX19 with Gle1^CTD•Nup42^GBM, without and with 0.5 mM IP6 (IP6 partially reduced complex formation); 20 mM TRIS (pH 8.0), 100 mM NaCl, 5 mM DTT; conditions: both partners purified
[4] = molecular target: T5, H. sapiens DDX19^∆N53 (residues 54–479); test: crystal structure; H. sapiens Gle1^CTD•Nup42^GBM•DDX19^∆N53, reconstituted from equimolar purified Gle1^CTD•Nup42^GBM and DDX19^∆N53; with ADP 3.6 Å or AMP-PNP•Mg^2+ 3.4 Å; conditions: both partners purified
[5] = molecular target: T6, Nup155 C-terminal domain (Nup155^CTD, …); test: SEC; Superdex 200 10/300 GL; 20 mM TRIS (pH 8.0), 100 mM NaCl, 5 mM DTT; proteins mixed and incubated 30 min on ice, twofold molar excess of the smaller component; fractions on Coomassie-stained SDS-PAGE; conditions: both partners purified
GST-Nup155^CTD = molecular target: T7, GST-Nup155^CTD; test: pull-down; GST-Nup155^CTD (20 μM) preincubated with a twofold molar ratio of Nup98^ΔFG or SUMO-Gle1^N, then with 0-8-fold molar ratios of the other protein; Glutathione Sepharose beads; 20 mM TRIS (pH 8.0), 100 mM NaCl, 5 mM DTT; conditions: both partners purified
DDX19 (wild type) = molecular target: T8, DDX19 (wild type); test: EMSA; + 1 uM Gle1CTD(382-698)•Nup42GBM(379-423): binding enhanced; 1 mM AMP-PNP, 2 mM MgCl2; 20 mM TRIS pH 8.0, 100 mM NaCl, 2 mM MgCl2, 1 mM DTT, 10% glycerol, 1 mM AMP-PNP; 25 ng RNA in 10 ul; 20 min on ice; 1.4% native agarose gel, 0.25x TBE, room temperature; conditions: protein: recombinant; tags: His6 removed by PreScission protease; label: none (SYBR gold stain); single strand

T9 sequence (G0S381 441-557): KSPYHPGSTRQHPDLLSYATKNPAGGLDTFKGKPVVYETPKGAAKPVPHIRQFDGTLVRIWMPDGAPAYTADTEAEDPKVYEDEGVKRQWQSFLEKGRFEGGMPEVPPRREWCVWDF
T9 sequence (G0S7F3 216-529): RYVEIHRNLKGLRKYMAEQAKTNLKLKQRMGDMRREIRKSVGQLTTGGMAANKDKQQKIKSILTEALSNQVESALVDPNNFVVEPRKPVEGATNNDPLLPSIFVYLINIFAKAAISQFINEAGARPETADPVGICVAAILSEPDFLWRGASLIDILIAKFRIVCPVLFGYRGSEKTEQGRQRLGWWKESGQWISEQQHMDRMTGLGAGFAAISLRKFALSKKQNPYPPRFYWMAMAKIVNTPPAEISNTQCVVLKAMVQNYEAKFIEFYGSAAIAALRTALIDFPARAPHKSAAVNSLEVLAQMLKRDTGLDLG

Molecule	binding result (H. sapiens DDX19)	binding result [4]	binding result [5]	binding result (GST-Nup155^CTD)	further results
O=P(O)(O)O[C@H]1[C@H](OP(=O)(O)O)[C@@H](OP(=O)(O)O)[C@H](OP(=O)(O)O)[C@@H](OP(=O)(O)O)[C@H]1OP(=O)(O)O [IP6]					X-ray crystal structure (2.17 Å) [1]: IP6 binds to C. thermophilum Gle1^CTD and to S. cerevisiae Gle1^CTD in a similar orientation; Tm (S. cerevisiae Gle1^CTD): 22 to 37 °C; Kd [2]: ~3 nM; size exclusion chromatography, complex formation [3]: Dbp5 and Gle1^CTD•Nup42^GBM only formed a complex in the presence of IP6
B1	binds	binds			
B2	binds	binds			
B3			binds	binds	
B4			binds	binds	
B5					binding result (DDX19 (wild type)): binds
